From a protein production outcome set (Wang et al. 2014)

Assay: label from the status in PepcDB records

## MPSETTEHKTGPAVTVVIVSYQSGPTLEPCLARLAAQTFRDFETILIDNFSTDGAPQAAAKAHPWVDFVEAGANLGFAAGNNLAARRAKGRWLVLLNPDAYAEPDWLEELMAGAARHPTVKSFASLQLSADRPGLLDGAGDNVTSAGIPFRGGYGRKPPAVLPEGEVFSACGAAMLIDRDLFLSVGGFDERYFCYCEDVDLGYRLRLYGEPTLLLPKAKVAHVGSASTGVRSDFSIFHGSRNRVWTFLKNTPGWLLPVTLPLHVAVTAGLLLLHWRRGDVAPAIRGIRAALKREDLDQVMADRRLIQARRKASPGAILRVMSIDPAAFIGRRFVIRKWRGA
  protein production: failed

## MTWTNVLAMLVWTGASAVLLFAIMWVDSIFTKYNDLKEIKNGNTAVTTRFVMKLFAQGYILSQSITKANDLWQALLASAVSFVILLVVEMFIEFVLKKMAGLDLEEGTKEGSVAHAMLAGSLHIVGALILGACL
  protein production: failed

## MPIEIITDSGADLPQSYIREHRIAFLPLVVHWNGQDYKDGITIEPKQVYDAMRQGHTVKTAQPSPLAMKELFLPYAKENRPCLYIAFSSKLSGTYQTAMAVRSELLDEYPEFRLTIIDSKCASLGQGLAVMKAVELAKQNTPYNLLCETIESYCRHMEHIFTVDNLDYLARGGRISKTAAAFGGLLNIKPLLHVEDGALIPLEKWRGRKKVLKRMVELMGERGDDLQKQTIGISHADDEETALELKQMIEETHGCTRFFLSDIGSAIGAHAGPGTIALFFLNKYIEI
  protein production: not failed

## MFMGKLPHQADLIGALIEAAGANGIRAGAIQVIGALQGAKLGFYDQWSKSYRELPFAKPLEIVSGLGNISLRDGRPFVHLHLSISDEEGKVFGGHALEGCTIFAAEYAIMPLPGSAPVRVFDETTGLFLWEREQYPASGQKGLSPELERALLNPLEHHHHHH
  protein production: not failed

## MSDPSAKPLQEHILIILDDAGRREVLLTETFYTIGRSPRADIRIKSQFVSRIHAVLVRKSSDDVQAAYRIIDGDEDGQSSVNGLMINGKKVQEHIIQTGDEIVMGPQVSVRYEYRRRDQFGTMPGNEQFDITLIDPGMIDDEEEIPTSVSSSPPEME
  protein production: failed

## MKSSDIDQDLFTDSYCKVCSAQLISESQRVAHYESRKHASKVRLYYMLHPRDGGCPAKRLRSENGSDADMVDKNKCCTLCNMSFTSAVVADSHYQGKIHAKRLKLLLGEKTPLKTTGLRRNYRCAICSVSLNSIEQYHAHLKGSKHQTNLKNK
  protein production: failed

## MTESTGSTSQEQQVRGETMPDWEKRFRAPRVSLPDWAEDAPHRALFVSNATGTYELYAWDRTTGEQRQVTDRPNGTTDGVLSPDGEWIWWFDDTDGDEFGIWRRQRFTGGGTADGPDEPAADGLEPSYPAGLAIGRDGGTAVVGRSTDEDGSTVHVVRAGQEPVEIYRHRESAGVGDLSHDGSLIAVEHTEHGDAMHSALRVLRLDGSTVAELDDTKGGSVELGLEVLGFAPVDGDTRLLIGHQRRGRWEPLVWDVASGEETDLALELPGDVGAEWYPDGSALLVAHSFEARSELFRYDLASRELVRVPTPAGTVSGATARPDGSVEYLWSSAAEPSVVRSTSGGIVLDPPGMKSPGSVPVEDVWVEGPGGRVHALVQRPAGASGPLPTVFDIHGGPTWHDSDSFAAGPAAWLDHGYAVVRVNYRGSTGYGREWTDALKHRVGLIELEDIAAVREWAVSSGLADPDRLILTGGSWGGYLTLLGLGTQPDAWTIGIAAVPVADYVTAYHDEMEALKAMDRTLLGGTPEEVPERFEASSPLTYVDAVKAPVYISAGVNDPRCPIRQVENYVERLTARDAVHEVYRYDAGHGSLVVDERIKQVRLELEFAERHLGR
  protein production: failed

## NSSKSLEAELVRDRQELIDARKKELKAYMMMGVTAIKPLYDSDVNGSNKQAAKEILKAMRFESDGYFFAYDSQGINTLHAIKPSLEGKNLYDLKDENGVAVIAGLIDASQKGDGFLYFSWHKPTINAQAPKLGYAEYLQKWDWVLGTGIYIDDIDQQVAMQRELRTQELNQHT
  protein production: not failed

## MSLQTKILIIDGDKDNCQKLKGFLEEKGISIDLAYNCEEAIGKIFSNKYDLIFLEIILSDGDGWTLCKKIRNVTTCPIVYMTYINEDQSILNALNSGGDDYLIKPLNLEILYAKVKAILRRMNSYVNNEGHHHHHH
  protein production: not failed

## MTSRFMLIFAAISGFIFVALGAFGAHVLSKTMGGVEMGWIQTGLEYQAFHTLAILGLAVAMQRRISIWFYWSSVFLALGTVLFSGSLYCLALSHLRLWAFVTPVGGVSFLAGWALMLVGAIRLKRKGVSHE
  protein production: failed

## MAKGVRVGLKNIHFAKILTEDENGVTYDTPVKIGNAIEASITPNTNSETLYADDGPSEVESSLGETEVEIGIDQLSTTAQALLLGHTILSDGVLEKKETDIAPYGALLFESATTGGKSKLYALYKGRFQPQEESFATKGLEHHHHHH
  protein production: not failed

## MDNIPDGDWYCYECVNKATNERKCIVCGGHRPSPVGKMIYCDLCPRAYHADCYIPPLLKVPRGKWYCHGCISRAPPPKKRSAGGTSGSSSKSRRDRDRESGGSAKRRSDNSKTPAMEHMQQQQMPLAGGDSHHHHHQQPPSLNSSHDESM
  protein production: failed

## SNEELETAKEEMQSVNEELQTINSELHGKNELLLQANNDLQNLLDNTQIATIFLDDDLTVRNFTPAAREVFSLRDGDRGRPVTEITSLLSYDKLCEDVRTVQRTLGVVESQLDLEDESATYIMRIRPYRTVANVISGVVITFSNITEQKQQHDHLQVLMGELQHRTNNVFAVILAIARQTVRNS
  protein production: failed

## MEITLSKSLLIAVVLAPLLGSIIAGLFGRQVGRKGAQYVTILGVAVSCVLSCVTLYQLVEQGASPFNQNLYTFFDVGNYSAHVGFMVDRLTAMMMVVVTFVSLLVHIYTIGYMEEDPGYQRFFSYISLFTFSMLTLVMSNNFLQLFFGWEAVGLVSYLLIGFWFKRPTAVFANMKAFLVNRVGDFGFILGIAGVLLWFGSLDYSTVFANATTMAGAKVQLFAGHEWSVMTLICICLFIGAMGKSAQVPLHVWLPDSMEGPTPISALIHAATMVTAGIFMVARMSPLFELSETALNFILFIGATTAFFTGLIGIVQNDIKRVVAYSTLSQLGYMTVALGVSAYSAAVFHLMTHAFFKALLFLAAGSVIIGMHHEQDMRKMGGLRKYMKVTYWTSVIGTLALVGTPFFSGFYSKDTIIEAAAHHAHESHNWVATYGYWAVLGGVLVTSFYSFRLLFLTFHGKERFRDAHAHDVHSHHDSAHTDAEAQVHSHDAHAHDDHGHGHHGAHEPHESKWVVTLPLVLLAIPSIAIGFFTIGPMLFGTDWQGHHAVHAMKGQAVSFFTGIVDFYDPARDTVGALAEEFHGPVAFALHGMLAAPFFLTVAGLLLAALFYLWKPELATKSRKTFAPIVWLLENKYGFDKLWINGFAGGGVVLGKASRAVDTHVVDGAVVNGSARLIDLAANLLRRTQSGFLYHYAFAMIIGLIALLAVLMHFWR
  protein production: failed

## MSQYQRLLLIADPQQHQSPAARRAVALARASGAALHALVFVEPPARTYLWEEHLEDSEREAYLQRHERWLQVEAQWMAEEGVQVTTQVIWSTQVLKDMLAYIDEFRPDLLIKDVTLESALKRVFVTPLDCHLLREAPVPVHLVNDAPHKLPRRIVAAVDPAQSDTQIRGLNTQIIQTAHALALQCDAQLHLLYAYDLMPMLDGVAPVASTAWSVNCLDELRDSLHKEFERLGDEHNVPQEFRHFIMGPPVPGIAQFVDEYLVDVVVMGTVHRTGFGRLIGSTTERALYSMPGSILAVKASGAA
  protein production: failed

## MNEIITWILIVICLTQSAVFSGLTIGIFGLGRLRLEIEAEANNKNAIKILQVRRDSNFLLTTLLWGNVGVNVLIAQLTDSVMAGTFAFLFSTFGITCFGEIMPQAYFSRNALDIGAKLTPLVRFYQMLLYPVAKPTALVLDWWLGREKLELFREQAMRIMLEKHIESGKTDIGTFEGIGALNFLSIDDVSISDEGSIIDSRSIISLPVENNRPVFPPFNREPSDPFLQKIEASGKKWVIITSPENEPVMVLDADGFLRDAVYKKGPFLPLIYCHFPVVVKSPETRLEKVIRQFKVYPQYPEDDVIDQDLILYWGEEKRIITGSDILGRLLRGIVVECELGSGCEIPVPPSQPGFVRRTAFRRGKKKEIENLKRK
  protein production: not failed

## MSAIDCIITAAGLSSRMGQWKMMLPWEQGTILDTSIKNALQFCSRIILVTGYRGNELHERYANQSNITIIHNPDYAQGLLTSVKAAVPAVQTEHCFLTHGDMPTLTIDIFRKIWSLRNDGAILPLHNGIPGHPILVSKPCLMQAIQRPNVTNMRQALLMGDHYSVEIENAEIILDIDTPDDFITAKERYTEILEHHHHHH
  protein production: not failed

## MWNGREYMSEPASPEKKVIIIAGPNGAGKTTFAEEFLPQEAQCLTFINADLIAAGLAPFEPEQAAFRAGRLMLEEIYNHAQRGQNFAFETTLSGRSYARLIPTWQAQSYIVKLFFLQLLSPELAIARVAQRVRAGGHHVPEAIIRRRFAAGLHNLETLYKLIVDEWVCYDNSGNEPVLINKGGKLLEHHHHHH
  protein production: not failed

## MEHEYQRAVTRVCVQTALLLLQHGAESTVVVQMAQRLGVALGVESVECALTANAVVLTTLSDNHCITTARKNTDKGINMQMVTDVQRIVIAVEHHLYELEIAQRKLDQLKPLKYNRWLVVFMIGLSCAAFAHLSSGDWIICGITIFMLKLLYDMLFAAIPAVGFALVFNVPPKALKYCAILAALGHVTRTLLLHINMPIVFATFFATCVIGFLGVHLSHRYLAHPKAFTVAAIIPMIPGVHAYKAMISMVQIHHFGFSDALFEQMISSFINTSFILGAIVFGLALPGLLFYRQKPVV
  protein production: failed

## MSSNAQVRPPLPPFTRESAIEKIRLAEDGWNSRDPERVSLAYTLDTQWRNRAEFAHNREEAKAFLTRKWAKELDYRLIKELWAFTDNRIAVRYAYEWHDDSGNWFRSYGNENWEFDEQGLMARRFACINDMPIKAQERKFHWPLGRRPDDHPGLSELGLLEHHHHHH
  protein production: not failed

## MFAFPRLRFVLVGTQHPGNIGAAARAMKTMGISRLVLVAPECQLDEHAYRRSAGAEDVLEAASVHTVLADAVADCTFVLGCTARTRRVAFEELRPAAAASQILTNINAAGEVALLFGRERTGLTNEELQLCHVAVHIPADPLFSSLNLAAAVQILAYEIRLASLDAPSAPLHSTSGFRKTPASHAQLEGLFGQFKQTLDEIDFHKGRAPESAMRKLRRLFAKAELTQQEIRLLRGVLSDVQRIVMLKRQRDT
  protein production: failed

## MERKLSNGCVASKSEELAKQQLPPPPDQDQEQPALQPPKVNGLKENQAVKHNNNNNTNNNNNKNGLVNGNAKKDELKAAEDHDTQSKEDDDPKEKVVKPKLNGNLIKNPIDKTAETQDKIAQPAPEPPLPKRPKLETPTSNEVTKANGQLVQQQLESRESEEEPQHVDE
  protein production: failed

## MTDAPADAPLDADARRAVKPVICYPNDSLPRPDLALYRAARASARKTGEVLVPPREGRCFEVKAGQFFRISSVEGPQVGDLNLHNLHDLTERFFSGKTRALHGTHVTTGERLWSNLPYLRPMATIIEDTLGWYGIDQYGGSVHDVIGTRCDPYTGNLLAGGHYHHCCHSNLTRALADHTGLPLHEAEMLVHDVLNVFMCTGFTRDTGQYFMKASPVRPGDYLEFFAEIDLLGNLSACPGGDCSSEHSSDTASCHPLLVEIFAPAEGMLGDWPSPSVNGYDRSHGR
  protein production: not failed

## MSLLERLNQDMKLYMKNREKDKLTVVRMVKASLQNEAIKLKKDSLTEDEELTVLSRELKQRKDSLQEFSNANRLDLVDKVQKELDILEVYLPEQLSEEELRTIVNETIAEVGASSKADMGKVMGAIMPKVKGKADGSLINKLVSSQLS
  protein production: not failed

## MRYGFMKVAAAVPFVKVADCEYNIERIDRMVHEADAKGVEIMTFPELSITGYSCGDLFFQPFLQERANEALCRLVEQTANTTVMVIVGMPLRVEEKLFNSAVVFQQGKILGAIPKTYLPNYREFQEARWFSPAHTLQYSTISIGQHSVPIGRNLIFKCGTVGVGIEICEDMWTPFTPGTRLCLYGAEVIFNLSSSNENAGKHSYLRSLISGLSSQGICAYVYASSGYGESSTDIVFTGKAFIAEAGEIVEEMERFRYEERMIISDIDVSRIQTERLINSSFKA
  protein production: failed
